Data published in patent publication US20030148958A1 (PROCTER AND GAMBLE, published 2003).
Ends that are not written are not given here.

T1: CRF2R
T1 sequence (Q13324 whole entry, species assumed, looked up): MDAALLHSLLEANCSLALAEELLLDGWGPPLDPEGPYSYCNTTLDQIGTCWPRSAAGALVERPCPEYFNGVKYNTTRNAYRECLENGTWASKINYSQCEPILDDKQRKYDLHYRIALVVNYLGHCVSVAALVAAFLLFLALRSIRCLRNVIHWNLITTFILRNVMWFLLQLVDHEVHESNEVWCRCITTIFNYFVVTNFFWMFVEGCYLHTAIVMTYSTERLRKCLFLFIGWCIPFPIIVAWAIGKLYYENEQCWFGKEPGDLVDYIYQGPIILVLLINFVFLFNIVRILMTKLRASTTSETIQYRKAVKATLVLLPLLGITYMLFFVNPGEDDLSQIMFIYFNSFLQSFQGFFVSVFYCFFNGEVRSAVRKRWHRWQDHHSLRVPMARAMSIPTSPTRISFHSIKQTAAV


Columns and labels:
[1] = biological target: T1, CRF2R; assay: cell-based or functional assay
[2] = biological target: CRF1R; assay: cell-based or functional assay
For CRF1R Emax % in this document: reference of the scale not given here.
For CRF2R Emax % in this document: reference of the scale not given here.

| Binder | CRF2R EC50 [1] [nM] | CRF2R Emax % [1] [%] | CRF1R EC50 [2] [nM] | CRF1R Emax % [2] [%] |
| --- | --- | --- | --- | --- |
| ZGPPISIDLPFFLLRKMIEIEKQEKEKQQAANNALLLDTI (C-terminal amide) [SEQ ID NO 318] | 9.95 | 95.4 | 134 | 92.8 |
| ZGPPISIDLPFFLLRKMIEIEKQEKEKQQAANNALLLATI (C-terminal amide) [SEQ ID NO 319] | 8.5 | 95 | 106 | 88.3 |
| DNPSLSIDLPLLLLRTLLELEKTQSQRERAEQNARIFDRV-NH2 [SEQ ID NO 338] | 19.3 | 77.5 | 1000 | 41.1 |
| DNPSLSIDLPLLLLRTLLELARTQSQRERAEQNARIFARV-NH2 [SEQ ID NO 340] | 7.99 | 100 | 740 | 96 |
| DNPSLSIDLPQYLLRTLLELARTQSQRERAEQNAIIFASV-NH2 [SEQ ID NO 339] | 100 | 47.9 | 1000 | 13.2 |
| IVLSLDVPIGLLQKMIEIEKQEKEKQQATTNARILARV-NH2 [SEQ ID NO 322] | 23.1 | 96.5 | 1000 | 10.7 |
| PSLSIDLPLILLRTLLELEKTQSQRERAEQNARIFARV-NH2 [SEQ ID NO 332] | 9.95 | 100 | 1000 | 61.3 |
| ZGPPISIDLPLQLLRKVIEIEKQEKEKQQATTNARILARV (C-terminal amide) [SEQ ID NO 320] | 19.1 | 100 | 718 | 68.8 |
| ZGPPISIDLPFQLLRKTIEIEKQEKEKQQATTNARLLDRV (C-terminal amide) [SEQ ID NO 321] | 19.6 | 86.8 | 1000 | 33.8 |
| DNPSLSIDLPLLLLRTLLELEKTQSQRERAEQNAQIFAHV-NH2 [SEQ ID NO 324] | 17.2 | 100 | 1000 | 46.6 |
| PSLSIDLPLLLLRTLLELEKTQSQRERAEQNARIFARV-NH2 [SEQ ID NO 333] | 9.85 | 96.9 | 1000 | 43.8 |
| DNPSLSIDLPLLLLRTLLELEKTQSQRERAEQNAHIFAHV-NH2 [SEQ ID NO 328] | 11.7 | 95.7 | 1000 | 30.7 |
| DNPSLSIDLPLILLRTLLELARTQSQRERAEQNARIFARV-NH2 [SEQ ID NO 330] | 6 | 93.7 | 1000 | 86.8 |
| DNPSLSIDLPLFLLRTLLELEKTQSQRERAEQNARIFDRV-NH2 [SEQ ID NO 336] | 17.8 | 100 | 1000 | 59.9 |
| DNPSLSIDLPLILLRTLLELEKTQSQRERAEQNARIFDRV-NH2 [SEQ ID NO 337] | 23.9 | 86.7 | 1000 | 36.5 |
| PSLSIDLPLFLLRTLLELEKTQSQRERAEQNARIFARV-NH2 [SEQ ID NO 331] | 9.85 | 100 | 1000 | 78.7 |
| IVLSLDVPIGLLQILLEQEKARAAREQATTNARILARV-NH2 [SEQ ID NO 325] | 11.7 | 100 | 100 | 5 |
| DNPSLSIDLPLLLLRTLLELEKTQSQRERAEQNAEIFAEV-NH2 [SEQ ID NO 323] | 19.6 | 100 | 1000 | 36.9 |
| DNPSLSIDLPLILLRTLLELEKTQSQRERAEQNARIFARV-NH2 [SEQ ID NO 335] | 28.1 | 91 | 1000 | 49.5 |
| DNPSLSIDLPLFLLRTLLELARTQSQRERAEQNARIFARV-NH2 [SEQ ID NO 329] | 5.15 | 98.3 | 1000 | 98.4 |
| DNPSLSIDLPLLLLRTLLELEKTQSQRERAEQNANIFANV-NH2 [SEQ ID NO 326] | 33.7 | 100 | 1000 | 30.1 |
| DNPSLSIDLPLFLLRTLLELEKTQSQRERAEQNARIFARV-NH2 [SEQ ID NO 334] | 13.2 | 93.5 | 1000 | 82.6 |
| DNPSLSIDLPLLLLRTLLELEKTQSQRERAEQNAQIFAQV-NH2 [SEQ ID NO 327] | 28.4 | 100 | 1000 | 36.5 |
